Literature values, collected in publication PMC8217106.

Biological target: BCL9 (Homo sapiens) (UniProt O00512)
UniProt O00512, sequence (O00512 whole entry): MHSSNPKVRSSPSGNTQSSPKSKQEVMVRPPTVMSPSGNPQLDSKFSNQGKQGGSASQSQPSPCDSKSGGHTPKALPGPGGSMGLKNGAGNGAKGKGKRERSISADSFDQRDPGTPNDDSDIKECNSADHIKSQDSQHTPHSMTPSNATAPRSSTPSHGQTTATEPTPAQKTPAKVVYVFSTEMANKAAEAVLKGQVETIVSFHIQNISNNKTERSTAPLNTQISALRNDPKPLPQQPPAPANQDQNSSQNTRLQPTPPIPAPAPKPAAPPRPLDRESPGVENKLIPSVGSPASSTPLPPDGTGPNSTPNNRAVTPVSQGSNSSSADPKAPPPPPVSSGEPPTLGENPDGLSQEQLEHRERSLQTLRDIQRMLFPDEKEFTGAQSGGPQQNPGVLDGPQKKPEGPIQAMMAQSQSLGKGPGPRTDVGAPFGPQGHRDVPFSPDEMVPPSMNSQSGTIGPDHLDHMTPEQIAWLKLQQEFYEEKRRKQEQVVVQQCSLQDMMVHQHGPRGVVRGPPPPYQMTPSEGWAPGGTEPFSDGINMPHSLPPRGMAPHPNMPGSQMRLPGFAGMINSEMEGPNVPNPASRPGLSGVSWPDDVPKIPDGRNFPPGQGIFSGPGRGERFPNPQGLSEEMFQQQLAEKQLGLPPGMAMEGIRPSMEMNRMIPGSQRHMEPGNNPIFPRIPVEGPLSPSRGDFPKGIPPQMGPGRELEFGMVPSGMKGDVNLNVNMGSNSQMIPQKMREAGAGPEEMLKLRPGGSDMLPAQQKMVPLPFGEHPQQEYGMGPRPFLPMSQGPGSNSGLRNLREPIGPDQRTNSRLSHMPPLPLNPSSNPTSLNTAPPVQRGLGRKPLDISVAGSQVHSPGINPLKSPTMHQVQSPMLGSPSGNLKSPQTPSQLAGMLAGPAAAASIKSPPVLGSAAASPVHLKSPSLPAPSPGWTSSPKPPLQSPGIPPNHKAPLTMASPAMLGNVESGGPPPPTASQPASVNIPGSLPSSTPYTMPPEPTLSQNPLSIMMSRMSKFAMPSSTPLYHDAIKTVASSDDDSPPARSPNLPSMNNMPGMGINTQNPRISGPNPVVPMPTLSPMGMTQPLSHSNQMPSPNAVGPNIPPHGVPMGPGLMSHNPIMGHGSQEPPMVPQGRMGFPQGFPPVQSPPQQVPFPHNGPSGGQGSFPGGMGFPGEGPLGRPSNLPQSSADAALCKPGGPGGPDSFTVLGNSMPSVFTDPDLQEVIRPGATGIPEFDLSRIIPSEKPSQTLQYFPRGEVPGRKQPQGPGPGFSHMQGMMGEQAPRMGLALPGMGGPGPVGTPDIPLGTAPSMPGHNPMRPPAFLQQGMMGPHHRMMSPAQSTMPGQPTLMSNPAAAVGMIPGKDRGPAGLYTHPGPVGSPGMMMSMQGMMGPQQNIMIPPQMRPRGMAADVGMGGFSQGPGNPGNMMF

- Kd: 470 nM
Substance: β-catenin (from UniProt P35222)
